Assay results reported in PMC8886374, “Click Chemistry and Multicomponent Reaction for Linker Diversification of Zinc Dipicolylamine-Based Drug Conjugates” (Frontiers in Chemistry, 2022).

Experiments:
[1] = In vivo pharmacokinetic study, i.v., ICR mice; parameters: species or system mouse; conditions: male ICR mice, i.v. 5 mg/kg; for AUCSN-38: SN-38 released from the dosed conjugate; for AUCSN-38 / AUC: 0–24 h; for AUC / clearance / Vd: mouse, in vivo, iv; for AUC: intact conjugate, read-out: AUCconjugate; for clearance / Vd: n = 3; for Vd: read-out: Vss
Description: Six-week-old ICR mice, purchased from Biolasco (Taiwan), were divided into groups of three and 100 µl of dosing solution was given intravenously. Through cardiac puncture, blood sample was collected from each sacrificed animal at time points at 0.003, 0.083, 0.25, 0.5, 1, 2, 4, 6, 8, and 24 h and stored on ice (0–4°C). Plasma was separated from the blood by centrifugation at 3,000 rpm for 15 min at 4°C in a Beckman Model Allegra 6R centrifuge. Analysis of the plasma samples were done by using liquid chromatography with tandem mass spectrometry (LC/MS/MS). A gradient system was used for the separation of analyte and IS. Ammonium acetate aqueous solution (10 mM) containing 0.1% formic acid was used as mobile phase A, while mobile phase B was acetonitrile. The gradient profile was as follows: 0.0–1.1 min, 50%B; 1.2–3.7 min, 55%B–90%B; 3.8–5.0 min, 90%B–50%B at the flow rate of 1.5 ml/min. The autosampler was programmed to inject 15 µl of sample every 5 min.
Next, to address the in vivo longevities and stabilities of U-4CR and/or “clicked” conjugates, in vivo systemic pharmacokinetic studies of conjugates 4–8 were carried out in the ICR mice. One single intravenous dose of 5 mg/kg of each conjugate was given to the mice. Plasma concentrations between the intact conjugate and the active payload (released SN-38 from the conjugate) in the circulation were measured and the pharmacokinetic parameters including clearance (CL), steady-state volume of distribution (Vss), and area under the plasma concentration curve (AUC0–24h) were determined (Table 2). Since SN-38 was the cytotoxic payload, the AUC ratio between the intact conjugate and SN-38 reflected the plasma stability, as these conjugates should be capable of uncaging the payload with higher protease activities in the tumor microenvironment. We envisioned that U-4CR could be a valuable synthetic strategy that unifies several advantageous features for bioactive SMDC in vivo. In addition to installing hydrophilic moiety to increase solubility and functional groups that modulate steady-state volume of distribution of the conjugate in vivo, a facile reactive handle for payload conjugation was also included. Indeed, we observed structure–property trends among the U-4CR-derived conjugates 5–8. Since these conjugates harnessed the same exo-BCN clicked SN-38 portion, the U-4CR products between the Zn-DPA targeting ligand and other components might contribute factors that could affect their in vivo stabilities (Table 2).

[2] = tested on: ICR mice; assay: In vivo maximum tolerated dose determination (acute toxicity); parameters: species or system mouse; conditions: 5-day repeat dose, 1-week recovery monitoring
Description: The acute toxicity studies were determined in ICR male mice. In general, the studies were conducted using the dose of 10-50 mpk for dosing 5 consecutive days and the survival of the animals and their body weight were monitored for 14 days after first dosing.
However, acute toxicity is another important parameter to be monitored in the development of SMDC. […] Not limited by the components described within, the optimization of in vivo pharmacokinetic profiles of alternative ZnDPA-based SMDC, we anticipate that U-4CR with combinations of different components can lead to the construction of improved properties, such as decrease in the clearance rate and steady-state volume of distribution (Vss). Moreover, we envision employment of an imaging agent as one of the components can also furnish functional theranostic if desired.

[3] = tested on: MiaPaca-2 human pancreatic tumor; assay: In vivo anti-tumor study, MiaPaca-2 xenograft in nude mice; conditions: MiaPaca-2 tumor-bearing nude mice, i.v.; conjugate 4 10 mg/kg qd (5 + 5); CPT-11 40 mg/kg twice/week for 2 weeks
Description: The number of viable cells was counted with a hemocytometer with trypan blue staining under a light microscope on the day of tumor cell inoculation. Cells were suspended with phenol red free RPMI-1640 and Matrigel in a 1:1 ratio. MiaPaca-2 suspension cells (1 × 10^6 cells) were implanted subcutaneously into the left flank of the nude mice using a 1-ml syringe (needle 24G × 1 in., 0.55 × 25 mm; TERUMO). A digital caliper was used to measure tumor sizes and dimensions as the tumor volume in mm^3 was calculated with the formula: Volume = (length × width^2)/2. Tumor-bearing mice were randomized (n = 8 per group) and mean tumor volume was approximately 170 mm^3. […] Body weight and tumor size were measured twice weekly.

[4] = tested on: MiaPaca-2 pancreatic cancer cells; conditions: MiaPaca-2, MTS, 72 h
Description: MiaPaCa-2 cells, obtained from the Bioresource Collection and Research Center, Hsinchu, Taiwan, and the Detroit 551 cells were cultured in Dulbecco’s modified Eagle’s medium (DMEM). All cells were grown in a humidified CO2 incubator at 37°C. Cell viability was determined by the MTS assay. In brief, cells were cultured (2,500–3,000 cells/well) in flat bottomed 96-well plates for 24 h. Serial-diluted conjugates were added to the cell media and incubated for 72 h. Culture medium was removed after 72 h followed by the addition of 100 μl of MTS and PMS mixture solution. In a humidified incubator at 37°C with 5% CO2, cells were then incubated for another 1.5 h for viable cells to convert the tetrazolium salt into formazan. The conversion to formazan was monitored at the 490-nm absorbance by a BioTek PowerWave-X Absorbance Microplate Reader. In this MTS assay, the recorded data were normalized to DMSO-treated and background controls. Using GraphPad Prism version 4 software, the IC50 value was the amount of each conjugate that caused a 50% reduction in cell viability in comparison to DMSO-treated controls.

Row | SMILES | AUCSN-38 [1] | AUC [1] [ng·h/mL] | clearance [1] [mL/min/kg] | Vd [1] [L/kg] | maximum tolerated dose (MTD) [2] [mpk] | difference in the AUC for the intact conjugate versus the released SN-38 within 24 h [1] [fold] | tumor shrinkage [3] | decrease in potency towards MiaPaca-2 (IC50 ratio) compared to SN-38 [4] [fold]
1 | C/C=C/C(=O)N(CCCCOc1cc(CN(Cc2ccccn2)Cc2ccccn2)cc(CN(Cc2ccccn2)Cc2ccccn2)c1)C1(C(=O)NC(C)(C)C)CCN(C(=O)OC[C@H]2[C@@H]3CCc4nnn(CCOCCOCCN(Cc5ccc(C(=O)Oc6ccc7nc8c(c(CC)c7c6)Cn6c-8cc7c(c6=O)COC(=O)[C@]7(O)CC)cc5)C(=O)C5(c6ccc(Cl)cc6)CCCCC5)c4CC[C@@H]32)CC1 [conjugate 7] | 1,309 ng/ml*h | 20700 | 8.3 | 3.6 |  |  |  | 
2 | CCc1c2c(nc3ccc(OC(=O)c4ccc(CN(CCOCCOCCn5nnc6c5CC[C@H]5[C@@H](CC6)[C@@H]5COC(=O)N5CCC(C(=O)N(CCCCOc6cc(CN(Cc7ccccn7)Cc7ccccn7)cc(CN(Cc7ccccn7)Cc7ccccn7)c6)C6(C(=O)NC(C)(C)C)CCOCC6)CC5)C(=O)C5(c6ccc(Cl)cc6)CCCCC5)cc4)cc13)-c1cc3c(c(=O)n1C2)COC(=O)[C@]3(O)CC [conjugate 6] | 927 ng·h/mL | 6460 | 13.5 | 4.1 |  |  |  | 
3 | CCOP(=O)(CNC(=O)C1(N(CCCCOc2cc(CN(Cc3ccccn3)Cc3ccccn3)cc(CN(Cc3ccccn3)Cc3ccccn3)c2)C(=O)c2ccc(-c3ccc(O)cc3)cc2)CCN(C(=O)OC[C@H]2[C@@H]3CCc4nnn(CCOCCOCCN(Cc5ccc(C(=O)Oc6ccc7nc8c(c(CC)c7c6)Cn6c-8cc7c(c6=O)COC(=O)[C@]7(O)CC)cc5)C(=O)C5(c6ccc(Cl)cc6)CCCCC5)c4CC[C@@H]32)CC1)OCC [conjugate 8] | 1,549 ng/ml*h | 62000 | 1.3 | 0.1 | 30 | 40 |  | 
4 | CCc1c2c(nc3ccc(OC(=O)c4ccc(CN(CCOCCOCCn5nnc6c5CC[C@H]5[C@@H](CC6)[C@@H]5COC(=O)N(C)CCCC(=O)N(CCCCOc5cc(CN(Cc6ccccn6)Cc6ccccn6)cc(CN(Cc6ccccn6)Cc6ccccn6)c5)C5(C(=O)NC(C)(C)C)CCOCC5)C(=O)C5(c6ccc(Cl)cc6)CCCCC5)cc4)cc13)-c1cc3c(c(=O)n1C2)COC(=O)[C@]3(O)CC [conjugate 5] | 696 ng·h/mL | 1590 | 50.2 | 18.5 |  |  |  | 
5 | CCc1c2c(nc3ccc(OC(=O)N4CCC(N5CCCCC5)CC4)cc13)-c1cc3c(c(=O)n1C2)COC(=O)[C@]3(O)CC [CPT-11, irinotecan] |  |  |  |  |  |  | not observed | ~350
